Substitutions are numbered along the chain they refer to.
B1: Her3_MetSS_KHSS_FS1 (protease cleavage during expression) (bispecific antibody)
heavy 1: not shown
heavy 2: not shown
chain: ALGGGGSGGGGSDIQMTQSPSSLSASVGDRVTITCKSSQSLLYTSSQKNYLAWYQQKPGKAPKLLIYWASTRESGVPSRFSGSGSGTDFTLTISSLQPEDFATYYCQQYYAYPWTFGCGTKVEIKR
light: DIQMTQTTSSLSASLGDRVTISCRARQDISNYLNWYQRKPDGTVKLLIYYTSRLHSGVPSRFSGSGSGTDYSLTISNLEQEDIATYFCQQGNTFPWTFGGGTKLEIKRTVAAPSVFIFPPSDEQLKSGTASVVCLLNNFYPREAKVQWKVDNALQSGNSQESVTEQDSKDSTYSLSSTLTLSKADYEKHKVYACEVTHQGLSSPVTKSFNRGEC
notes: Trivalent Her3-cMet bispecific: full length anti-Her3 IgG with knobs-into-holes, cMet dsFv (VHCys44/VLCys100) at the C-termini; Arg/Lys residues before the cleavage site were removed
B2: Her3_MetSS_KHSS_FS2 (protease cleavage during expression) (bispecific antibody)
heavy 1: not shown
heavy 2: not shown
chain: B1 chain with A1S
light: B1 light
notes: As m1 but with furin site variant 2
B3: Her3_MetSS_KHSS_PreSci_digested (after purification and protease cleavage) (bispecific antibody)
heavy 1: not shown
heavy 2: not shown
chain: GPSGGGGSGGGGSDIQMTQSPSSLSASVGDRVTITCKSSQSLLYTSSQKNYLAWYQQKPGKAPKLLIYWASTRESGVPSRFSGSGSGTDFTLTISSLQPEDFATYYCQQYYAYPWTFGCGTKVEIKR
light: B1 light
notes: the VL stays attached through the dsFv disulfide
B4: Her3_MetSS_KHSS_PreSci (purified intermediate) (bispecific antibody, human IgG1, kappa)
heavy 1: not shown
heavy 2: not shown
light: B1 light
notes: also called restricted dsFv module; double-tethered dsFv

Experiments:
Assay in all cases: SPR (Biacore)
[1] = target: T1, HER3 (UniProt P21860 20-643, limits assumed)
T1 construct: Antigen as used in Biacore; also called ErbB3

[2] = target: T2, cMet (UniProt P08581 25-932, limits assumed)
T2 construct: Antigen as used in Biacore

[3] = target: T2, cMet; remark: listed apart in the source

T2 sequence (P08581 25-932 limits assumed): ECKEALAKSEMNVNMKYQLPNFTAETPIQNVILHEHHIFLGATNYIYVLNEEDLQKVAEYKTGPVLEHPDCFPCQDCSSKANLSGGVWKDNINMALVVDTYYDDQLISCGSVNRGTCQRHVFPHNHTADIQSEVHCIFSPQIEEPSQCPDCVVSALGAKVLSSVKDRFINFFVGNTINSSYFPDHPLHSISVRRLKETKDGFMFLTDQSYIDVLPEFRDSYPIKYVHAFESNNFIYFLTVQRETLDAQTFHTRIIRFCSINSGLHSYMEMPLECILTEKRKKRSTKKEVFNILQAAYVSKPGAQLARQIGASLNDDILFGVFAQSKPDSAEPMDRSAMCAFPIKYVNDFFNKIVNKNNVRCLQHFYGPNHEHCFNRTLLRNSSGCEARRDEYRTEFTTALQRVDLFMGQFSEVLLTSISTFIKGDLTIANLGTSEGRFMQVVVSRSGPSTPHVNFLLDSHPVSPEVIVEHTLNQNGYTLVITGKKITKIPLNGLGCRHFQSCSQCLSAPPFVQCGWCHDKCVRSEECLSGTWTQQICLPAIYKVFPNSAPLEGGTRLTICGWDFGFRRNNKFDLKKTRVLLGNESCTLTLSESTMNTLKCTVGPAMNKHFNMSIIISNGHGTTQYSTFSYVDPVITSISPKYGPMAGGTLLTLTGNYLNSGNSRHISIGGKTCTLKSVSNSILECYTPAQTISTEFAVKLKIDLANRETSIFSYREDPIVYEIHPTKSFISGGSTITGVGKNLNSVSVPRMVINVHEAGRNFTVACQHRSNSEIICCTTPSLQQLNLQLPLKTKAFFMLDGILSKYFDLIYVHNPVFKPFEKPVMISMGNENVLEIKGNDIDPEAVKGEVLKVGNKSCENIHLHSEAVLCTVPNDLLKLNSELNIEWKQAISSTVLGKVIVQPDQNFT

| Binder | Kd [1] [nM] | koff [1] [s⁻¹] | kon [1] [M⁻¹ s⁻¹] | Kd [2] [nM] | koff [2] [s⁻¹] | kon [2] [M⁻¹ s⁻¹] | fold improved affinity against the restricted form [3] [fold] | fold reduced affinity against the Wildtype Fab [3] [fold] |
| --- | --- | --- | --- | --- | --- | --- | --- | --- |
| B1 | 2.05 | 0.000338 | 165000 | 6.05 | 0.000188 | 31200 | – | – |
| B2 | – | – | – | 7.05 | 0.000193 | 27400 | – | – |
| B3 | 2.02 | 0.000356 | 176000 | 8.35 | 0.000203 | 24300 | > 30 | – |
| B4 | 2.4 | 0.000414 | 172000 | 369 | 0.000197 | 533 | – | > 20 |

— patent US20130267686A1 (HOFFMAN LA ROCHE, published 2013)
